What was measured:
[1] = test system: HUVEC tube formation; experiment: HUVEC tube formation assay; type: cell-based, human; conditions: branches as % of MOCK
Experimental: (§1) Genetic mutation introduced during antibody engineering induces unpredicted defects, resulting in deterioration in antibody functions. In order to isolate antibodies for suppressing clec14a-mediated angiogenesis, tube formation and endothelial cell migration assay using human umbilical vein endothelial cells (HUVECs) were conducted in the presence or absence of clone 1 IgG and deglyco C1-C4 IgGs. Among the four types of deglyco IgGs, deglyco C1 IgG was selected as a candidate antibody. […] In addition, it can be seen that deglyco C1 IgG includes desired alterations (N32R/N33C/S34G) in the amino acid sequence in light chain CDR1.
(§2) In order to compare in vitro angiogenesis suppression effect between deglyco C1 IgG and bevacizumab, tube formation and migration assay were conducted in the presence or absence of parent antibody IgG, deglyco C1 IgG or bevacizumab as a positive control group.
In order to investigate in vitro effects of deglyco C1 IgG on VEGF-dependent angiogenesis, HUVECs were treated with VEGF in the presence or absence of deglyco C1 IgG, and then HUVEC tube formation assay was conducted. 150 μl of Matrigel was added to a 48-well plate and incubated at 37° C. for 30 minutes. HUVEC (10^5) cultured in EGM-2 were collected, seeded on the Matrigel-coated plate and incubated at 37° C. for 18 hours in the presence or absence of clone 1 IgG, parent antibody IgG, deglycosylated clec14a-CTLD IgG or bevacizumab. HUVECs cultured in VEGF-containing EBM (endothelial cell basal medium) were seeded to the Matrigel-coated plate and incubated at 37° C. for 18 hours in the presence or absence of deglyco C1 IgG (20 μg ml^−1).

[2] = test system: HUVEC migration; experiment: HUVEC migration (wound healing) assay; type: cell-based, human; conditions: % of MOCK
Experimental: as §1, §2

[3] = aggregation and purification amounts of deglycosylated antibodies, before and after φ; type: physicochemical; conditions: based on 100 ml culture
[4] = target: T1, hclec14-CTLD and hclec14a-ECD interaction (Homo sapiens, UniProt Q86T13); experiment: ELISA: interaction of hclec14a-CTLD-Fc-HRP with hclec14a-ECD; type: binding; conditions: increasing antibody concentration
T1 construct: hclec14a-CTLD-Fc-HRP was incubated together with purified hclec14a-ECD; hclec14a-ECD (extracellular domain of human clec14a); myc (C)
T1 sequence (Q86T13 33-173 limits assumed): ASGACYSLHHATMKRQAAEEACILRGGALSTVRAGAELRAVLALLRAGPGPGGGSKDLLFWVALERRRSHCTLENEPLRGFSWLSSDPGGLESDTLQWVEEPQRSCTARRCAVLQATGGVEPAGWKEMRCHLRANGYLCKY
Experimental: In addition, hclec14a-CTLD-Fc-HRP was incubated together with purified hclec14a-ECD in the presence of an increasing concentration of parent antibody IgG or deglyco C1 IgG, or in the absence thereof.

[5] = test system: CFPAC-1 cells; experiment: tumor cell-derived Matrigel plug angiogenesis assay; type: in vivo, mouse; conditions: single dose of 10 mg/kg, 2 weeks, nude mice
Experimental: (§3) In order to investigate in vivo effects of deglyco C1 IgG on tumor angiogenesis, tumor cell-derived Matrigel plug angiogenesis assay was conducted on thymus-removed nude mice. SNU182- and CFPAC-1 cells and U87 human glioma cells containing Matrigel were transplanted into thymus-removed nude mice in the presence of deglyco C1 IgG and bevacizumab with a single dose of 10 mg/kg or in the absence thereof. 2 weeks later, the Matrigel plug was removed and the total hemoglobulin content of each group was measured with an ELISA reader.

[6] = test system: U87 human glioma cells; experiment: as above; type: in vivo, mouse; conditions: single dose of 10 mg/kg, 2 weeks, nude mice
Experimental: as §3

[7] = test system: SNU182 cells; experiment: as above; type: in vivo, mouse; conditions: single dose of 10 mg/kg, 2 weeks, nude mice
Experimental: as §3

[8] = test system: HUVECs; experiment: HUVEC viability (cell counting Kit-8); type: cell-based, human; conditions: 2 days
Experimental: In order to evaluate effects of deglyco C1 IgG on toxicity of endothelial cells, after treatment with deglyco C1 IgG, viability of HUVECs was measured. Viability was measured in accordance with the manufacturer's manual through cell counting Kit-8 (#CK04-13, Dojindo Laboratories, Kumamoto, Japan).

[9] = in vivo toxicity in normal mouse; conditions: intravenous, twice a week
Excerpt: In order to investigate in vivo toxicity of deglyco C1 IgG, deglyco C1 IgG was intravenously injected into a normal mouse twice a week, and hepatic and renal functions, body weight, and apoptosis conditions of hepatic and renal tissues between control groups and experimental groups were then compared. The hepatic function was investigated by measuring serum concentrations of glutamic-oxaloacetic transaminase (GOT), glutamic pyruvic transaminase (GPT), and total bilirubin (TBIL), and the renal function was investigated by measuring the concentrations of blood urea nitrogen (BUN) and creatinine (CRE). Apoptosis was measured by TUNEL staining.

B1: deglyco C1 IgG: deglycosylated clone 1 IgG; light chain CDR1 TGSSSNIGRCGVT (SEQ ID NO: 2), N32R/N33C/S34G (antibody, V domains shown)
VH: EVQLVESGGGLVQPGGSLRLSCAVSGFTFSGYDMSWIRQAPGKGLEWVAGIYPDGGNTYYADSVKGRFTISRDDSKNTFYLQMNSLRAEDTAVYYCARGATWWVLGPFDYWGQGTLVTVSS
VL: DIQLTQSPSSLSASVGDRVTITCTGSSSNIGRCGVTWYQQKPGKAPKLLIYADSHRPSGVPSRFSGSGSGTDFTLTISSLQPEDFATYYCGAWDDSLSGYVFGQGTKVEIKR
For B1, the “inhibitory activity against HUVEC tube formation” value [1] was “most excellent inhibitory activity”, the “inhibitory activity against HUVEC tube formation” value ([1]; listed as Deglyco C1 IgG) was “significantly suppressed” and the “inhibitory activity against HUVEC migration” value [2] was “most excellent inhibitory activity”. The “inhibitory activity against HUVEC migration” value ([2]; listed as Deglyco C1 IgG) was “inhibited migration to a similar extent to bevacizumab”, the “Final um, After φ” value [3] was 4.821 mg and the “Final um, Before φ” value [3] was 4.859 mg. The “Fraction1, After φ” value [3] was 0.009 mg, the “Fraction1, Before φ” value [3] was 0.011 mg and the “Fraction2, After φ” value [3] was 3.763 mg. The “Fraction2, Before φ” value [3] was 3.792 mg, the “Fraction3, After φ” value [3] was 0.921 mg and the “Fraction3, Before φ” value [3] was 0.938 mg. The “Fraction4, After φ” value [3] was 0.128 mg, the “Fraction4, Before φ” value [3] was 0.129 mg and the “suppression of interaction between hclec14-CTLD and hclec14a-ECD” value [4] was “directly suppressed”. The “hemoglobin content, CFPAC-1-derived” value [5] was “significantly reduced hemoglobin”, the “hemoglobin content, U87-derived” value [6] was “significantly reduced hemoglobin” and the “hemoglobin content, SNU182-derived” value [7] was “significantly reduced hemoglobin”. The “viability of HUVECs” value [8] was “did not exhibit cytotoxic effects”, the “apoptosis of hepatic and renal tissues (TUNEL)” value [9] was “apoptosis conditions were observed” and the body weight [9] was “no significant change in body weight”. For the same molecule, the “hepatic and renal functions (GOT, GPT, TBIL, BUN, CRE)” value [9] was “no significant change”.

— patent publication US20190309074A1, “DEGLYCOSYLATED ANTIBODY SPECIFICALLY BINDING TO CLEC14A AND USES THEREOF” (WOORI TECHNOLOGIES CORPORATION, priority 2016, published 2019)
